Laboratory results published in patent US20160347802A1.
Values belong to the binder of their own block, whether it stands above or below them.

What was measured:
[1] = target: biotinylated recombinant human DCC (human) (UniProt P43146); assay: AVEXIS, prey on bait DCC; white = No binding
[2] = target: T1, human DRAXIN, AVEXIS prey or bait protein (human), Q8NBI3; assay: AVEXIS, prey on bait hDRAXIN, upper value; white = No binding; conditions: remark: other sources report otherwise
T1 chain: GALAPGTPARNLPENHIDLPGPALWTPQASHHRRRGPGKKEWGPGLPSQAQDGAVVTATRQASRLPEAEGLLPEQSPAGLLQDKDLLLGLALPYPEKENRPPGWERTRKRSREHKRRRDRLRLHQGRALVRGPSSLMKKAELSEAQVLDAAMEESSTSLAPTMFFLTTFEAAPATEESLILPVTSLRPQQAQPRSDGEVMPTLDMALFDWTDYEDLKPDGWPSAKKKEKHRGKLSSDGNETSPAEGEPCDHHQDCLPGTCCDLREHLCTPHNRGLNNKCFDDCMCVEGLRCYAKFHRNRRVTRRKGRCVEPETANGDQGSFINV

[3] = target: T1, human DRAXIN, AVEXIS prey or bait …; assay: AVEXIS, prey on bait DRAXIN; white = No binding; conditions: remark: other sources report otherwise
[4] = target: T1, human DRAXIN, AVEXIS prey or bait …; assay: AVEXIS, prey on bait hDRAXIN, lower value; white = No binding; conditions: remark: other sources report otherwise

A486nm [1]: 0.065
B1: human Netrin-G2, AVEXIS protein (ligand, UniProt Q96CW9 18-507, looked up, not shown: small tags and cut ends)
chain: DYDICKSWVTTDEGPTWEFYACQPKVMRLKDYVKVKVEPSGITCGDPPERFCSHENPYLCSNECDASNPDLAHPPRLMFDKEEEGLATYWQSITWSRYPSPLEANITLSWNKTVELTDDVVMTFEYGRPTVMVLEKSLDNGRTWQPYQFYAEDCMEAFGMSARRARDMSSSSAHRVLCTEEYSRWAGSKKEKHVRFEVRDRFAIFAGPDLRNMDNLYTRLESAKGLKEFFTLTDLRMRLLRPALGGTYVQRENLYKYFYAISNIEVIGRCKCNLHANLCSMREGSLQCECEHNTTGPDCGKCKKNFRTRSWRAGSYLPLPHGSPNACATAGSFGNCECYGHSNRCSYIDFLNVVTCVSCKHNTRGQHCQHCRLGYYRNGSAELDDENVCIECNCNQIGSVHDRCNETGFCECREGAAGPKCDDCLPTHYWRQGCYPNVCDDDQLLCQNGGTCLQNQRCACPRGYTGVRCEQPRCDPADDDGGLDCDRAPG

A486nm [1]: 0.065
B2: human Netrin-4, AVEXIS protein (ligand, UniProt Q9HB63 19-628, looked up, not shown: small tags and cut ends)
chain: GLSGVAGVSSRCEKACNPRMGNLALGRKLWADTTCGQNATELYCFYSENTDLTCRQPKCDKCNAAYPHLAHLPSAMADSSFRFPRTWWQSAEDVHREKIQLDLEAEFYFTHLIVMFKSPRPAAMVLDRSQDFGKTWKPYKYFATNCSATFGLEDDVVKKGAICTSKYSSPFPCTGGEVIFKALSPPYDTENPYSAKVQEQLKITNLRVQLLKRQSCPCQRNDLNEEPQHFTHYAIYDFIVKGSCFCNGHADQCIPVHGFRPVKAPGTFHMVHGKCMCKHNTAGSHCQHCAPLYNDRPWEAADGKTGAPNECRTCKCNGHADTCHFDVNVWEASGNRSGGVCDDCQHNTEGQYCQRCKPGFYRDLRRPFSAPDACKPCSCHPVGSAVLPANSVTFCDPSNGDCPCKPGVAGRRCDRCMVGYWGFGDYGCRPCDCAGSCDPITGDCISSHTDIDWYHEVPDFRPVHNKSEPAWEWEDAQGFSALLHSGKCECKEQTLGNAKAFCGMKYSYVLKIKILSAHDKGTHVEVNVKIKKVLKSTKLKIFRGKRTLYPESWTDRGCTCPILNPGLEYLVAGHEDIRTGKLIVNMKSFVQHWKPSLGRKVMDILKRECK

A486nm [2]: 0.054
A486nm [3]: 0.062
A486nm [4]: 0.057
B3: human DRAXIN, AVEXIS prey or bait protein, Q8NBI3 26-349 (ligand)
chain: T1 chain

A486nm [1]: 0.072
B4: human DRAXIN, AVEXIS prey or bait protein (ligand)
chain: T1 chain

A486nm [1]: 0.063
B5: human Netrin-G1, AVEXIS protein (ligand, UniProt Q9Y2I2 29-510, looked up, not shown: small tags and cut ends)
chain: HYDLCKTQIYTEEGKVWDYMACQPESTDMTKYLKVKLDPPDITCGDPPETFCAMGNPYMCNNECDASTPELAHPPELMFDFEGRHPSTFWQSATWKEYPKPLQVNITLSWSKTIELTDNIVITFESGRPDQMILEKSLDYGRTWQPYQYYATDCLDAFHMDPKSVKDLSQHTVLEIICTEEYSTGYTTNSKIIHFEIKDRFAFFAGPRLRNMASLYGQLDTTKKLRDFFTVTDLRIRLLRPAVGEIFVDELHLARYFYAISDIKVRGRCKCNLHATVCVYDNSKLTCECEHNTTGPDCGKCKKNYQGRPWSPGSYLPIPKGTANTCIPSISSIGNCECFGHSNRCSYIDLLNTVICVSCKHNTRGQHCELCRLGYFRNASAQLDDENVCIECYCNPLGSIHDRCNGSGFCECKTGTTGPKCDECLPGNSWHYGCQPNVCDNELLHCQNGGTCHNNVRCLCPAAYTGILCEKLRCEEAGSCGS

A486nm [1]: 0.06
Binder: EVMPTLDMALFDWTDYEDLKP (peptide, not shown: small tags and cut ends) [human DRAXIN 21 amino acid Netrin binding fragment, AVEXIS prey or bait protein]
